We go through three variants from IntAct's records for PubMed 19534813.

To fix the notation:
B1: Twist-related protein 1 (Homo sapiens), Q15672 (parent)
chain: MMQDVSSSPVSPADDSLSNSEEEPDRQQPPSGKRGGRKRRSSRRSAGGGAGPGGAAGGGVGGGDEPGSPAQGKRGKKSAGCGGGGGAGGGGGSSSGGGSPQSYEELQTQRVMANVRERQRTQSLNEAFAALRKIIPTLPSDKLSKIQTLKLAARYIDFLYQVLQSDELDSKMASCSYVAHERLSYAFSVWRMEGAWSMSASH

The variants in this assay derive from B1. As to conditions: with itf2_human TCF4, P15884.
Chain of itf2_human TCF4, P15884 (P15884 whole entry): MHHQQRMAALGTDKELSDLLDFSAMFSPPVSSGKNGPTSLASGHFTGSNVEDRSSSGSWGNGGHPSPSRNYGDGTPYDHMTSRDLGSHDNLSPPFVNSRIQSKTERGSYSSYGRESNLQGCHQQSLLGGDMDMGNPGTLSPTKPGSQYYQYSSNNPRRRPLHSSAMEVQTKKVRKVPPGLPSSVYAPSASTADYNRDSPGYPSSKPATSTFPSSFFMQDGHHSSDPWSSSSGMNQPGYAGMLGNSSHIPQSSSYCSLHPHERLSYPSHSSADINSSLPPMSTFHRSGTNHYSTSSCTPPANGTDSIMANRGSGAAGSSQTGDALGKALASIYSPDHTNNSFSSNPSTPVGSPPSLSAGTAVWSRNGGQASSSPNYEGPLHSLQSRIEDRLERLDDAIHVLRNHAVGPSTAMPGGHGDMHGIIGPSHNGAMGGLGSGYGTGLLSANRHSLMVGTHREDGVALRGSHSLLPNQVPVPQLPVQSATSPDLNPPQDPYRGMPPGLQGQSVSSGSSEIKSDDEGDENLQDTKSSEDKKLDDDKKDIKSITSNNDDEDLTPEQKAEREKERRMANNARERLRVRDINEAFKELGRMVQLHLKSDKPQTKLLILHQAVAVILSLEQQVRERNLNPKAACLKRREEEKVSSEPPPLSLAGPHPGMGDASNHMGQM
Take MMQDVSSSPVSPADDSLSNSEEEPDRQQPPSGKRGGRKRRSSRRSAGGGAGPGGAAGGGVGGGDEPGSPAQGRRGKKSAGCGGGGGAGGGGGSSSGGGSPQSYEELQTQRVMANVRERQRTQSLNEAFAALRKIIPTLPSDKLSKIQTLKLAARYIDFLYQVLQSDELDSKMASCSYVAHERLSYAFSVWRMEGAWSMSASH [K73R]: the “effect of a mutation on the interaction” value was “with no effect”. With MMQDVSSSPVSPADDSLSNSEEEPDRQQPPSGKRGGRKRRSSRRSAGGGAGPGGAAGGGVGGGDEPGSPAQGKRGKRSAGCGGGGGAGGGGGSSSGGGSPQSYEELQTQRVMANVRERQRTQSLNEAFAALRKIIPTLPSDKLSKIQTLKLAARYIDFLYQVLQSDELDSKMASCSYVAHERLSYAFSVWRMEGAWSMSASH [K77R], the “effect of a mutation on the interaction” value is “with no effect”. As for MMQDVSSSPVSPADDSLSNSEEEPDRQQPPSGKRGGRRRRSSRRSAGGGAGPGGAAGGGVGGGDEPGSPAQGKRGKKSAGCGGGGGAGGGGGSSSGGGSPQSYEELQTQRVMANVRERQRTQSLNEAFAALRKIIPTLPSDKLSKIQTLKLAARYIDFLYQVLQSDELDSKMASCSYVAHERLSYAFSVWRMEGAWSMSASH [K38R], the “effect of a mutation on the interaction” value is given as “with no effect”.
